Measured values: the PETadex activity labels (doi:10.1021/acscatal.2c02275)
Numbering of substitutions follows the chain as printed.

B1: unnamed (protein)
chain: MANPYERGPDPTESSIEAVRGPFAVAQTTVSRLQADGFGGGTIYYPTDTSQGTFGAVAISPGFTAGQESIAWLGPRIASQGFVVITIDTITRLDQPDSRGRQLQAALDHLRTNSVVRNRIDPNRMAVMGHSMGGGGALSAAANNTSLEAAIPLQGWHTRKNWSSVRTPTLVVGAQLDTIAPVSSHSEAFYNSLPSDLDKAYMELRGASHMVSNTPDTTTAKYSIAWLKRFVDDDLRYEQFLCPAPDDFAISEYRSTCPF
B2: unnamed (protein)
chain: B1 chain with W156A, M210L
B3: unnamed (protein)
chain: B1 chain with M210C
B4: unnamed (protein)
chain: B1 chain with I179Y, M210L
B5: unnamed (protein)
chain: B1 chain with M210R
B6: unnamed (protein)
chain: B1 chain with M210H
B7: unnamed (protein)
chain: B1 chain with F63A, M210L
B8: unnamed (protein)
chain: B1 chain with M210E
B9: unnamed (protein)
chain: B1 chain with M210V
B10: unnamed (protein)
chain: B1 chain with W156F, M210L
B11: unnamed (protein)
chain: B1 chain with M210P
B12: unnamed (protein)
chain: B1 chain with M210T
B13: unnamed (protein)
chain: B1 chain with L93F, Q95Y, R205C, M210L, S251C
B14: unnamed (protein)
chain: B1 chain with M210F
B15: unnamed (protein)
chain: B1 chain with M210Q
B16: unnamed (protein)
chain: B1 chain with F63Y, M210L
B17: unnamed (protein)
chain: B1 chain with M210D
B18: unnamed (protein)
chain: B1 chain with W156H, M210L

Substrate: gfPET
Test: Proxy for plastic degradation [Relative activity]
Conditions: pH 8

| Protein | Proxy for plastic degradation [%] |
| --- | --- |
| B1 | 74 |
| B2 | 5 |
| B3 | 8 |
| B4 | 26 |
| B5 | 95 |
| B6 | 54 |
| B7 | 22 |
| B8 | 6 |
| B9 | 61 |
| B10 | 8 |
| B11 | 16 |
| B12 | 48 |
| B13 | 70 |
| B14 | 58 |
| B15 | 94 |
| B16 | 65 |
| B17 | 66 |
| B18 | 1 |
